Test system: K4 kissing-loop RNA reporter
Test: apparent KD of K4 kissing-loop reporter; higher = weaker reporter binding
Conditions: Eterna round: R107
Method: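 RNA-MaP round R107: designed RNA switches with theophylline, tryptophan, arginine or FMN aptamers are transcribed on-chip within common flanks. They are titrated with a labelled K4 kissing-loop RNA reporter in RNA-MaP buffer (100 mM Tris pH 7.5, 80 mM KCl, 4 mM MgCl2), without ligand or with the indicated ligand. Median apparent KD per design.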

[1] = input ligand: theophylline 20 uM
[2] = input ligand: tryptophan 2.4 mM
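Note: bound reporter read as fluorescence of individual clusters on recovered sequencing chips by microscopy, with normalized cluster intensities fitted with a binding model.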

Sequence | apparent KD of K4 kissing-loop reporter (input ligand: FMN 200 uM) | apparent KD of K4 kissing-loop reporter (input ligand: arginine 13.2 mM) | apparent KD of K4 kissing-loop reporter (input ligand: none) | apparent KD of K4 kissing-loop reporter [1] | apparent KD of K4 kissing-loop reporter [2]
CAGCCUGGUCAGUGAUGUUGGCCGCAGGGAAAGGAUAUUGUGUUGGCAAGAAGGUUCGCUUGAUCGUUGGCCCAUGCAUGGGCCU [theeternabot_sameState_KL_FMN_A_44] | 186 nM | 180 nM | 197 nM | 280 nM | 183 nM
AGUGUUGUUUUUUUUAAGAGUGAUGUUUUUCGAGGACCGGUACGGCCGCCACUCGAGUGAUGAGUGAGGUGUGGUGAUGAUUAGU [#10 K4 Tryptophan A Exclusion] | 816 nM | 790 nM | 1050 nM | 664 nM | 337 nM
CCGUAGAACGGAAGGAGCGCCAUAGAUAAGAAUUCCGUAAGUGAGUGAUGUUCACACAAAUGGCAGGUAGGUCGCCGUUAUUUAG [Arg B Ex t5] | 178 nM | 194 nM | 220 nM | 202 nM | 201 nM
AGCUCAGCGUGACUCGAUAAGAGUCACAAACGAGGACCGGUACGGCCGCCACUCGAAAUAAAGGGAGUGAUGUUCUCGCUGAGCA [#SwitchBubble 4 #StaticStem #K4Late] | 641 nM | 300 nM | 370 nM | 274 nM | 625 nM
CUGUACAUCUCGGCCGCCACUGACCUAAGUGAUGUUAGGAAUGAAACCUAGUGAUGUUAGCAAACCAGGACCGGGAGGUGUGCAG [KL-SSTryp-B4 #Double Kiss] | 110 nM | 33.4 nM | 83.2 nM | 40.2 nM | 51.8 nM
AAUGUGCAGGGAAGGAGCGUAGUCCAGUGAUGUUGGAGUUAAAUACCAGUGAUGUUGGUUAUACAGGUAGGUCGCCCUAAAGCGC [Exclusion Arginine B Gf 5] | 73.5 nM | 67.7 nM | 81.3 nM | 98.3 nM | 71 nM
GGCAUCCAUGGACAUAGUGAUGUUAUGUACCGAGGACCGGUACGGCCGCCACUCGGCCAUGGAUGCCGCAAUCGGAAACGAUUGC | 868 nM | 558 nM | 885 nM | 667 nM | 290 nM
AUUAAUAUCACGGCCGCCACUGAAUAUUGUUUUUAUAUUUAGAAUAAUUGCCAGUGAUGUUGGAUCAGGACCGGGUGAGUUUAUA [JR_SSTryptoB_Sub007] | 544 nM | 362 nM | 461 nM | 377 nM | 421 nM
AAGGCAUUCAGAAGGAGCGUGGUUUAAUCAUUAAUAUUUUUUACGAGUGAUGUUCGUAAUUCACAGGUAGGUCGCUGAAUAAUAA [JR_ExcArginiB_Sub008] | 123 nM | 136 nM | 128 nM | 134 nM | 114 nM
GUACACUCUCGAGUGAUGUUCGGUAAUAGAGAGGAUAUCGCUUUUGCGAGAAGGCUCUGAAUGAGGAAACUCGUUCUGUGUGUAC [FMN A 20] | 906 nM | 686 nM | 1160 nM | 858 nM | 894 nM
UGGAUAUCGUUUAGUCUGGUGAGCUCAGAUACCAGACUAGCGAUAGUCCCUUGGCAGCUGAUUAUGAUUGAGUGAUGUUCAAUCG [Theo A Ex t9b] | 168 nM | 142 nM | 168 nM | 151 nM | 157 nM
GAUAUAUAGACGGCCGCCACUUAUAAAUUUCAGUGAUGUUGAAAUGUUAAAUAACGAACACAAUAGAGGACCGGGUCAAAUAUCG [Same State Tryptophan B GF 2] | 162 nM | 161 nM | 190 nM | 187 nM | 171 nM
CGUGAGUGCCGACGGUCAUCGGUCCAUGCACGAGGACCGGUACGGCCGCCACUCGAGCGUGGCAGUGAUGUUGCCAGCGCACUAA [Oninvexece] | 114 nM | 89.5 nM | 101 nM | 98.5 nM | 85.6 nM
GGAUAGGAUAGAGGAUAUGGUUUAGGCAAGAAUAACUUGUCAUGUAAAUCCAUGAGGAGUGAUGUUCCAGAAGGCUGUCCUAUCG [MatMod 8 - Jieux - Exclusion - FMN B] | 576 nM | 123 nM | 121 nM | 142 nM | 91.8 nM
UAAUGGUAAGUGAUGUUUACCUGGAACGAUACCAGUCGCCAUGAGGACCCUUGGCAGCGUCACACAGCCUUCUAGUUGUGGUCUU [theeternabot_sameState_KL_Theo_A_46] | 418 nM | 298 nM | 347 nM | 499 nM | 353 nM
AUUUUGUUGUCAGGAUAUUAGUAUGGUUUUGGUUUGUUAGUGAUGUUGAUGGUUUGUUUAUGUAUUUAAGAAGGGAUUUAGCGGU [swwsgumullin] | 693 nM | 463 nM | 534 nM | 573 nM | 424 nM
GCGCGUCAUGUCAGCGGUGACUACGUCGAUACCAGCAGGGAAACCUGCCCUUGGCAGCGACGCGCUGGAGUGAUGUUCCGACGGC [#2 Exclusion - Theophylline A Attempt #7 (HarryS)] | 184 nM | 176 nM | 180 nM | 318 nM | 159 nM
GUUACGCAUGGAAGGAGCGCACUCCGAUUGGACGACACAGUGAUGUUGUGGUUCGUUCGAAUGCAGGUAGGUCGCCAUGUGUAAC [Ex Arginine B K4 19] | 159 nM | 148 nM | 150 nM | 134 nM | 148 nM
UGUACCGAGUCAGGAUAUGUCGUCGAAAGACGAAAUGGAGUGAUGUUCCUUAAACUGCGAAAGCAGACAGAAGGGACUUGGUACU [FmnBS 29 #SwitchBubble #StaticStem #DoubleMagnetSystem] | 160 nM | 278 nM | 385 nM | 331 nM | 274 nM
GUAUUGUGAAUGGAUACCAGACACCCGAGUGAUGUUCGGAGCAGAGUGAUGUUCUAAUAAGUCCCUUGGCAGCCGGAAGCAGCCG [Same State Theophylline B GF 3] | 223 nM | 296 nM | 340 nM | 392 nM | 242 nM
CGCUUUGCGUCCGGUAGUGAUGUUACCAAGCGAGGACCGGUACGGCCGCCACUCGAGUGACAGACGUACUGGUAUCACCCGCUUU | 223 nM | 229 nM | 248 nM | 235 nM | 208 nM
